Literature values, collected in publication PMC9623233 (Clinical Cancer Research, 2022).
Where two headings read alike, the source gives them in different places.

Details: cited from earlier work

For “mirvetuximab soravtansine: α-FR–targeted antibody–drug conjugate with maytansine payload”, the Pneumonitis (combined with bevacizumab) is given as 9% and the Pneumonitis (single agent) is given as 2.9%.
